Results as given in IntAct's records for PubMed 29892012.

Tests used:
pde9a_human PDE9A = pde9a_human PDE9A (UniProt O76083)
dctd_human DCTD = target: T1, dctd_human DCTD (UniProt P32321)
T1 sequence: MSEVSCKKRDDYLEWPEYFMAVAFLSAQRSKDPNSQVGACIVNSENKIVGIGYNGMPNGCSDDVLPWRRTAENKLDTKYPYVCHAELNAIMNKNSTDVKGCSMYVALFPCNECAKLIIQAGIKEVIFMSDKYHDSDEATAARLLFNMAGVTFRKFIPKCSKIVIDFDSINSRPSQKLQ

nup62_human NUP62 = nup62_human NUP62 (UniProt P37198)
kctd9_human KCTD9 = target: T2, kctd9_human KCTD9 (UniProt Q7L273)
T2 sequence: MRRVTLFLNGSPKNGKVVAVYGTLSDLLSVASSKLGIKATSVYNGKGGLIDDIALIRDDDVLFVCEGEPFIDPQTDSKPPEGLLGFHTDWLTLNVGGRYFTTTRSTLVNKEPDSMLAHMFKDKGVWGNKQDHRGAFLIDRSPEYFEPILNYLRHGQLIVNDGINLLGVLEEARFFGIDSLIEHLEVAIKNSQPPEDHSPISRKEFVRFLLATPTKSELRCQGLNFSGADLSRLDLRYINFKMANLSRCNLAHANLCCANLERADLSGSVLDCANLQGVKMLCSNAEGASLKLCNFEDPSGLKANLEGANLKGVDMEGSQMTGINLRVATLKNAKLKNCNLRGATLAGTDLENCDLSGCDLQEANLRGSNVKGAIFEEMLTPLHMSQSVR

drc12_human DRC12 = drc12_human DRC12 (UniProt Q494R4)
Chain of drc12_human DRC12 (Q494R4 whole entry): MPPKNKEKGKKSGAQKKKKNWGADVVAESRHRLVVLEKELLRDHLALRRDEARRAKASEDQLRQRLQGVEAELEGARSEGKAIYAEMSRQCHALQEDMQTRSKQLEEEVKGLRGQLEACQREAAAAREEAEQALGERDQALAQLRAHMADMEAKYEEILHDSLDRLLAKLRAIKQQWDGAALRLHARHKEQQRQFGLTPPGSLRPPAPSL

rpia_human RPIA = rpia_human RPIA (UniProt P49247)
Chain of rpia_human RPIA (P49247 whole entry): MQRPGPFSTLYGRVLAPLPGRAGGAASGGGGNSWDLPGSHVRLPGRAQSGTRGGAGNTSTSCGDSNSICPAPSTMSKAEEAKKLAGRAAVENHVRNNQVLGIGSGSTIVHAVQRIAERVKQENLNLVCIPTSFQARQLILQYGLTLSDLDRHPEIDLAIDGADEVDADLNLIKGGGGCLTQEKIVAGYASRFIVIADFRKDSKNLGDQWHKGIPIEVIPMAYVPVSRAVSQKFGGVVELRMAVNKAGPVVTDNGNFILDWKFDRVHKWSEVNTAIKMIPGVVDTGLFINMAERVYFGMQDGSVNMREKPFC

zmat1_human ZMAT1 = zmat1_human ZMAT1 (UniProt Q5H9K5)
Chain of zmat1_human ZMAT1 (Q5H9K5 whole entry): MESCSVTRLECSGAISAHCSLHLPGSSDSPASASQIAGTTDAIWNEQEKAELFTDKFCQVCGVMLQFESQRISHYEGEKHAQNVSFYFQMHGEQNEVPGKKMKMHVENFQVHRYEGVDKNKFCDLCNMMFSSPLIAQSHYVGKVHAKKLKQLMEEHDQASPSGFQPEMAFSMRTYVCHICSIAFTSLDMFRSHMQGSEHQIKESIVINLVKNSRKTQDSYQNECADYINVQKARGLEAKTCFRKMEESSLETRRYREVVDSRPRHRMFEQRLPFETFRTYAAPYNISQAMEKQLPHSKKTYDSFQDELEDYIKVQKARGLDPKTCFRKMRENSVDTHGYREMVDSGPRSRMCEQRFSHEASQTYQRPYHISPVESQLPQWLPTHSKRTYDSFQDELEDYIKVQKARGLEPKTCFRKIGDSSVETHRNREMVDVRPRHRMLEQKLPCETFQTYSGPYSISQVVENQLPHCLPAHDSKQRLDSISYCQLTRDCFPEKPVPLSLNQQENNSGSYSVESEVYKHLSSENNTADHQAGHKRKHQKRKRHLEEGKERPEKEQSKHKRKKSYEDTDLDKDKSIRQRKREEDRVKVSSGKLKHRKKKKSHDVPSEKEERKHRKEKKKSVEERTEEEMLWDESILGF

reep6_human REEP6 = reep6_human REEP6 (UniProt Q96HR9)
Chain of reep6_human REEP6 (Q96HR9 whole entry): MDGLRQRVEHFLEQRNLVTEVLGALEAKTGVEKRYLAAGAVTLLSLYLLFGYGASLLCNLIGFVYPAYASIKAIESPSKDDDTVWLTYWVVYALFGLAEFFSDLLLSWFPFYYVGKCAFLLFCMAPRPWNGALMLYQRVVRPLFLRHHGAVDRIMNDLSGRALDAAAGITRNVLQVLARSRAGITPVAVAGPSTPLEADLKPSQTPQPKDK

cryaa_human CRYAA = target: T3, cryaa_human CRYAA (UniProt P02489)
T3 sequence: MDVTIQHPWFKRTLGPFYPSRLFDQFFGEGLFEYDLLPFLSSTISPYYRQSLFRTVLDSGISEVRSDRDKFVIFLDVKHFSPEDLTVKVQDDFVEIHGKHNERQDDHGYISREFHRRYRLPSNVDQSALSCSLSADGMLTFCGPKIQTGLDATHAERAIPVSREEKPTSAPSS

dcor_human ODC1 = target: T4, dcor_human ODC1 (UniProt P11926)
T4 sequence: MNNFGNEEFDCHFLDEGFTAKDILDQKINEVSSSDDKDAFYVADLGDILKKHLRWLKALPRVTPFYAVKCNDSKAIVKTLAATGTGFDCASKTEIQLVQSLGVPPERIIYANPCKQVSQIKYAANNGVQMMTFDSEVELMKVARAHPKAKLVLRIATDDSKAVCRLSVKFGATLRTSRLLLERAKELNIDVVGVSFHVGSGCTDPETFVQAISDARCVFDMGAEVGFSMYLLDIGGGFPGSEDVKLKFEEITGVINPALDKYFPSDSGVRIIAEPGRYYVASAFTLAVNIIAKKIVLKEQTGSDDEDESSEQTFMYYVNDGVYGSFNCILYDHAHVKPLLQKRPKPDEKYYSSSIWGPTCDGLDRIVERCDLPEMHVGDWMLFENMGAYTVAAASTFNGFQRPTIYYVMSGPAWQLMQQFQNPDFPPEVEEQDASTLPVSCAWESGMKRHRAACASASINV

txlna_human TXLNA = txlna_human TXLNA (UniProt P40222)
Chain of txlna_human TXLNA (P40222 whole entry): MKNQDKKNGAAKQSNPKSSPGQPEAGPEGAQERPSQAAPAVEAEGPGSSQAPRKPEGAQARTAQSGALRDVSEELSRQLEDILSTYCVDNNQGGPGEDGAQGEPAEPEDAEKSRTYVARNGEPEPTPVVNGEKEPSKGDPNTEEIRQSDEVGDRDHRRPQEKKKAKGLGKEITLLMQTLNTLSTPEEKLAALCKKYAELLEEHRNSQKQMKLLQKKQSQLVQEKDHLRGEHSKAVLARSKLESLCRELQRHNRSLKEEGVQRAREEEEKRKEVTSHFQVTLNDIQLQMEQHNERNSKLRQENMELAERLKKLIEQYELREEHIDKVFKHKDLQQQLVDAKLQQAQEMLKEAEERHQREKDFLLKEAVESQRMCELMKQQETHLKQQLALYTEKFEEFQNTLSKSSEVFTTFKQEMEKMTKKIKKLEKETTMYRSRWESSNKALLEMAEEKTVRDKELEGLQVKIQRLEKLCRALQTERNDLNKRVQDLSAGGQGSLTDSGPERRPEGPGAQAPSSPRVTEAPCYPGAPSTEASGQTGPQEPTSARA

trim1_human MID2 = target: T5, trim1_human MID2 (UniProt Q9UJV3)
T5 sequence: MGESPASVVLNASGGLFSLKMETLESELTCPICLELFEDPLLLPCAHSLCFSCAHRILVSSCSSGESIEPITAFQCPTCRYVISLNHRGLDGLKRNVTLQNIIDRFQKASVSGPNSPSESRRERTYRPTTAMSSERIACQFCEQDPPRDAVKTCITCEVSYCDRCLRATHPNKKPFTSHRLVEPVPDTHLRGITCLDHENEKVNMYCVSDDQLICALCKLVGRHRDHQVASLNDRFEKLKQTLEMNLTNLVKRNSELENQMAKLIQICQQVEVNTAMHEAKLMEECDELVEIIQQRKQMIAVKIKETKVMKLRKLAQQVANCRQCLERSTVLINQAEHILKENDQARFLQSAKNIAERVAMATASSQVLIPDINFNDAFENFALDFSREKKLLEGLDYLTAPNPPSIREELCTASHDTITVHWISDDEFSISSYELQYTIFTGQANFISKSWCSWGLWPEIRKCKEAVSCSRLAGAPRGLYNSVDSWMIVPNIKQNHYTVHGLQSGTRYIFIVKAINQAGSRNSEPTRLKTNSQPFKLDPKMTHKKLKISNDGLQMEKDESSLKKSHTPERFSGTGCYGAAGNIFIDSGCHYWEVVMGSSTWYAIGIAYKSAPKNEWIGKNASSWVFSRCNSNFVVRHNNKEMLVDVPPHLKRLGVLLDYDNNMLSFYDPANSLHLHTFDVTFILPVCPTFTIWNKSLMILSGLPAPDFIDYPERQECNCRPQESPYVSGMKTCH

itf2_human TCF4 = itf2_human TCF4 (UniProt P15884)
Chain of itf2_human TCF4 (P15884 whole entry): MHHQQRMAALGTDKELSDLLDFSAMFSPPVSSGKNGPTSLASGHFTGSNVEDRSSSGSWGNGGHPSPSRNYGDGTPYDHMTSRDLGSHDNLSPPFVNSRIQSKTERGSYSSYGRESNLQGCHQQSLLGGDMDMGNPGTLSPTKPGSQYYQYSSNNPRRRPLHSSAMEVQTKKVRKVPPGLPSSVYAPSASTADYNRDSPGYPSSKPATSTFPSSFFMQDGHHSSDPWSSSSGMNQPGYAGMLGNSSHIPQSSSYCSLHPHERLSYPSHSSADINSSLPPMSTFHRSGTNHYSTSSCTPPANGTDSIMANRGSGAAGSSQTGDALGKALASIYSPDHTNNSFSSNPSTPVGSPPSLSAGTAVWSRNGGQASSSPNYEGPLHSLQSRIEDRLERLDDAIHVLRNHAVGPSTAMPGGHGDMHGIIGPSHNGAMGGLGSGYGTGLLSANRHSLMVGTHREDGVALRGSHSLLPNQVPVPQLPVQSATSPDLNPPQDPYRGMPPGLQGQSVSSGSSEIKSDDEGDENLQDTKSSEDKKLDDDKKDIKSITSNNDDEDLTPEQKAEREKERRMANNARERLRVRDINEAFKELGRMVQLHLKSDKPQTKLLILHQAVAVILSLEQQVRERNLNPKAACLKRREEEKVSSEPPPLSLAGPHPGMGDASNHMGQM

zbt14_human ZBTB14 = target: T6, zbt14_human ZBTB14 (UniProt O43829)
T6 sequence: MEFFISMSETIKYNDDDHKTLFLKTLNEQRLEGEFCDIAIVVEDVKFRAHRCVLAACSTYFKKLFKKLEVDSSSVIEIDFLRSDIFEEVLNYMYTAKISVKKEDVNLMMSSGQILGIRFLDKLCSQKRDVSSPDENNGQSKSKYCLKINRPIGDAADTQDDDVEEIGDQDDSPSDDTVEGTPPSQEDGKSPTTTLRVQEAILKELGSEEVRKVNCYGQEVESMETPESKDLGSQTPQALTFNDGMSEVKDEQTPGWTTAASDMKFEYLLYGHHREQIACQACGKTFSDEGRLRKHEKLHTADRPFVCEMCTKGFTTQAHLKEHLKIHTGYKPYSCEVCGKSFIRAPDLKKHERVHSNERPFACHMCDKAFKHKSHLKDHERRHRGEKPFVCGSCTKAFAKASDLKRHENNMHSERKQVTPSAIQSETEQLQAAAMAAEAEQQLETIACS

pnma5_human PNMA5 = pnma5_human PNMA5 (UniProt Q96PV4)
Chain of pnma5_human PNMA5 (Q96PV4 whole entry): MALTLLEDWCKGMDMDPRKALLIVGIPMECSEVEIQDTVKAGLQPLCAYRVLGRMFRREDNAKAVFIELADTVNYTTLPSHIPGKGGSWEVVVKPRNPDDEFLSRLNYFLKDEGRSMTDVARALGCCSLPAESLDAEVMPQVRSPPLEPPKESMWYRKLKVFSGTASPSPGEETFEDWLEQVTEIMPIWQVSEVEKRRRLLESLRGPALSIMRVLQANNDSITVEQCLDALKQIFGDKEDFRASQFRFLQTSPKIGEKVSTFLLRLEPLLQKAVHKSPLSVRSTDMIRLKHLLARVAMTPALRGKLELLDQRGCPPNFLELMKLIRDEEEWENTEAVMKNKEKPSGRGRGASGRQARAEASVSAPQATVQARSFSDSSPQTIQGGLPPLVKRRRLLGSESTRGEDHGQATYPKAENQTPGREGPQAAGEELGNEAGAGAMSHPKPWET

Chain of nup62_human NUP62 (P37198 whole entry): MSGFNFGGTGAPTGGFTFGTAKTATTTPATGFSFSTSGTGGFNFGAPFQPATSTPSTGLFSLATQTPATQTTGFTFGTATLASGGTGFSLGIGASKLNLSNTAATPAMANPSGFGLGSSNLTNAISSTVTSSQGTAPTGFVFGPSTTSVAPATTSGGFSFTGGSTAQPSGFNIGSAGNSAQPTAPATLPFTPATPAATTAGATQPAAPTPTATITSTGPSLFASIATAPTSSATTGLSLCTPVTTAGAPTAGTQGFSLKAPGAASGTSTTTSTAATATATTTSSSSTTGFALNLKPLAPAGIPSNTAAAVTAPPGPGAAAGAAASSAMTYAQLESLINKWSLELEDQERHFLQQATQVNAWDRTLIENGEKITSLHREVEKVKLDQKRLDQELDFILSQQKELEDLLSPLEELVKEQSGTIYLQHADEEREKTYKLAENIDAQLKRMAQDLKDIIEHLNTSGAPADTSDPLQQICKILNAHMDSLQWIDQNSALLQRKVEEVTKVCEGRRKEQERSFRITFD
Chain of pde9a_human PDE9A (O76083 whole entry): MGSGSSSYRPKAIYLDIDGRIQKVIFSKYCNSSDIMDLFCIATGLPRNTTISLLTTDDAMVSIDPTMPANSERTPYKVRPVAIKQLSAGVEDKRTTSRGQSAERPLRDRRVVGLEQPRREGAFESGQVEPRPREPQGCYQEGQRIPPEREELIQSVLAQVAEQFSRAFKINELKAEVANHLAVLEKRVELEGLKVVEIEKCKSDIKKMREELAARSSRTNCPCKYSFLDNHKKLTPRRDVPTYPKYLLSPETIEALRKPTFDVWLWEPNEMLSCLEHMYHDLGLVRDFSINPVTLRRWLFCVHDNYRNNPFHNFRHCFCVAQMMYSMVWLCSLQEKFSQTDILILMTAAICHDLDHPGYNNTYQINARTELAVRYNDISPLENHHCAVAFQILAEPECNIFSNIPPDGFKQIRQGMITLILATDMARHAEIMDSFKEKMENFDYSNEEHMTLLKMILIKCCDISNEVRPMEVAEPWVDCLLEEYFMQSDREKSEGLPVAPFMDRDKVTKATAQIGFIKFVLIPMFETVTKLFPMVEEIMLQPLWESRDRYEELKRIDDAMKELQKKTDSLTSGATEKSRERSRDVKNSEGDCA

## Golgi reassembly-stacking protein 2 (Homo sapiens) (from UniProt Q9H8Y8) L320R
pde9a_human PDE9A
  effect of a mutation on the interaction: with no effect
dctd_human DCTD
  effect of a mutation on the interaction: with no effect
nup62_human NUP62
  effect of a mutation on the interaction: disrupting interaction strength
kctd9_human KCTD9
  effect of a mutation on the interaction: with no effect
drc12_human DRC12
  effect of a mutation on the interaction: with no effect
rpia_human RPIA
  effect of a mutation on the interaction: with no effect
zmat1_human ZMAT1
  effect of a mutation on the interaction: with no effect
reep6_human REEP6
  effect of a mutation on the interaction: with no effect
cryaa_human CRYAA
  effect of a mutation on the interaction: with no effect
dcor_human ODC1
  effect of a mutation on the interaction: disrupting interaction strength
txlna_human TXLNA
  effect of a mutation on the interaction: with no effect
trim1_human MID2
  effect of a mutation on the interaction: with no effect
itf2_human TCF4
  effect of a mutation on the interaction: with no effect
zbt14_human ZBTB14
  effect of a mutation on the interaction: with no effect
pnma5_human PNMA5
  effect of a mutation on the interaction: with no effect
